Data as given in the supplement of paper PMC10065799, “High-throughput profiling of sequence recognition by tyrosine kinases and SH2 domains using bacterial peptide display” (eLife, 2023).

How the values were obtained:
Jak2 = Jak2 (UniProt O60674); experiment: phosphorylation enrichment, bacterial display (enrichment ratio); higher = better substrate or ligand; peptides without Tyr show the background
Fyn = Fyn (UniProt P06241); experiment: as above
FGFR1 = FGFR1 (UniProt P11362); experiment: as above
FGFR3 = FGFR3 (UniProt P22607); experiment: as above
EPHB2 = EPHB2 (UniProt P29323); experiment: as above
Fes = Fes (UniProt P07332); experiment: as above
AncSZ = experiment: as above
c-Src = experiment: as above
c-Abl (mouse) = experiment: as above
Fer (mouse) = experiment: as above
Hck = Hck (UniProt P08631); experiment: as above
MERTK = MERTK (UniProt Q12866); experiment: as above
EPHB1 = EPHB1 (UniProt P54762); experiment: as above
c-Src SH2 = experiment: SH2 binding enrichment of the phosphorylated peptide, bacterial display (enrichment ratio); higher = better substrate or ligand; peptides without Tyr show the background
SHP2-C SH2 = experiment: as above
Grb2 SH2 = Grb2 SH2 (UniProt P62993); experiment: as above
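For SH2 binding enrichment of the phosphorylated peptide, bacterial display in this document: peptide library displayed on the E. coli surface as eCPX fusions, selected cells deep-sequenced, score is each peptide's frequency after selection divided by its frequency in the input.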
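For phosphorylation enrichment, bacterial display in this document: 11-residue human phosphosite peptides and single-mutation variants displayed on the E. coli surface, counted by deep sequencing, each peptide's frequency after selection divided by its frequency in the unselected input library; frequency after pTyr selection over input frequency; kinase dosed for 20-30% of maximal phosphorylation in three min.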

Chain of Hck (P08631 whole entry, looked up): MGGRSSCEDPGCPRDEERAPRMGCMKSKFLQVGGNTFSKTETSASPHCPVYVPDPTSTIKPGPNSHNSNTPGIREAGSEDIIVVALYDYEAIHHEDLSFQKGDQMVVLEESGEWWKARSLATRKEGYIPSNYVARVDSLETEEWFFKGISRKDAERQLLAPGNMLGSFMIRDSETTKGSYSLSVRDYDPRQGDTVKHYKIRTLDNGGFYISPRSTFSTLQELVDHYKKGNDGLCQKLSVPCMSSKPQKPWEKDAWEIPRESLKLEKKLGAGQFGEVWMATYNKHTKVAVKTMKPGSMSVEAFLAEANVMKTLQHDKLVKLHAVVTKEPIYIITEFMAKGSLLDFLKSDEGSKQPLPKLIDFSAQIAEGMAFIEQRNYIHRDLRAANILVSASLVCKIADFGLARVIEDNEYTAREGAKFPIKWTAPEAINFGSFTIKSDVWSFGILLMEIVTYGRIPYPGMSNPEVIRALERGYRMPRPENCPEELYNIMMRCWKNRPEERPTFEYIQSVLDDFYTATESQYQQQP
Chain of MERTK (Q12866 whole entry, looked up): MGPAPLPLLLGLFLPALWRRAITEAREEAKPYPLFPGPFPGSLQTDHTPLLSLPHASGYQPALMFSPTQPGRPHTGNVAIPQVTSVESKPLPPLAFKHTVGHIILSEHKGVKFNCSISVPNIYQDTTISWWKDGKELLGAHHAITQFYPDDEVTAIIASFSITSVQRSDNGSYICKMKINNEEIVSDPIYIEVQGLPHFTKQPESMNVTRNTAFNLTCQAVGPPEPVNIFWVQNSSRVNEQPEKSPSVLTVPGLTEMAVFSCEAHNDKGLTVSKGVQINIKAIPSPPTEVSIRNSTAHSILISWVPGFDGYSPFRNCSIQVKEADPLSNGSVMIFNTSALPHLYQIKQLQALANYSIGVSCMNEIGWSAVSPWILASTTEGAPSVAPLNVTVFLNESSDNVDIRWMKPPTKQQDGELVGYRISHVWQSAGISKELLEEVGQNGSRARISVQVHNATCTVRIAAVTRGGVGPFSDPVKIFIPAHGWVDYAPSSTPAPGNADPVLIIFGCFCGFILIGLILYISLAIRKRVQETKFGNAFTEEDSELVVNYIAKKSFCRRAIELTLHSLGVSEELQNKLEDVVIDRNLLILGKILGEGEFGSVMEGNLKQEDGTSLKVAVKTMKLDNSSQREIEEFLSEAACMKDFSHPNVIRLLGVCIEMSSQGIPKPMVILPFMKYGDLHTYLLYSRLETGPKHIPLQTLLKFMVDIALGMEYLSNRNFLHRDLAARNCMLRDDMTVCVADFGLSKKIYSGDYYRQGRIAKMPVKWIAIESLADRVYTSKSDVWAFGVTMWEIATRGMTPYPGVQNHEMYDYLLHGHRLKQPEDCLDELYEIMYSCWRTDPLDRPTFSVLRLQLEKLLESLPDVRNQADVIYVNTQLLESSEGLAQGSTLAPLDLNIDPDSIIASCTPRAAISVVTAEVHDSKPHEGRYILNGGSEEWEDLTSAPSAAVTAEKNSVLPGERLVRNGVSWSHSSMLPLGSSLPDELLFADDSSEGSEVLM
Chain of FGFR1 (P11362 whole entry, looked up): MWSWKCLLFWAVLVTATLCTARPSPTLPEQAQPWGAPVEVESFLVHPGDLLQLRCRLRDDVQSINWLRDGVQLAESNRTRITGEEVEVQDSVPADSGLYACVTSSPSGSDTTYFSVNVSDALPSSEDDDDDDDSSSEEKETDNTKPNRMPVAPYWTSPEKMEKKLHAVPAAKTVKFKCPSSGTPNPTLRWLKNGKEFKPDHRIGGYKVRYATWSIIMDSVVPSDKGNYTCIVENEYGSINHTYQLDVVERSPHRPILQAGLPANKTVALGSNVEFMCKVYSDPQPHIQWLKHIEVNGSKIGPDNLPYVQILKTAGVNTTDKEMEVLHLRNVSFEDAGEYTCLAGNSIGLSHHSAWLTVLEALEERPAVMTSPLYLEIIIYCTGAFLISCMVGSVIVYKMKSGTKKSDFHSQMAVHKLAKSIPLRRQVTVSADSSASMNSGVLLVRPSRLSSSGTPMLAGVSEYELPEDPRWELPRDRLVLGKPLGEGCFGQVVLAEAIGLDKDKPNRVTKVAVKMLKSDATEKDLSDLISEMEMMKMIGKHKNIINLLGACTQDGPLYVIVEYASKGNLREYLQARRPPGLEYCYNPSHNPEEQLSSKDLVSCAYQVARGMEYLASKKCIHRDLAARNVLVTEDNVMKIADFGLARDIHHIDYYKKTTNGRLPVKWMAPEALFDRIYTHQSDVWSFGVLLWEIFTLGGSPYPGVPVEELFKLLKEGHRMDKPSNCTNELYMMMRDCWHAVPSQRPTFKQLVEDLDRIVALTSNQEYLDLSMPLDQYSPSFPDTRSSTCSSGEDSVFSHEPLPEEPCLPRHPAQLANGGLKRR
Chain of EPHB1 (P54762 whole entry, looked up): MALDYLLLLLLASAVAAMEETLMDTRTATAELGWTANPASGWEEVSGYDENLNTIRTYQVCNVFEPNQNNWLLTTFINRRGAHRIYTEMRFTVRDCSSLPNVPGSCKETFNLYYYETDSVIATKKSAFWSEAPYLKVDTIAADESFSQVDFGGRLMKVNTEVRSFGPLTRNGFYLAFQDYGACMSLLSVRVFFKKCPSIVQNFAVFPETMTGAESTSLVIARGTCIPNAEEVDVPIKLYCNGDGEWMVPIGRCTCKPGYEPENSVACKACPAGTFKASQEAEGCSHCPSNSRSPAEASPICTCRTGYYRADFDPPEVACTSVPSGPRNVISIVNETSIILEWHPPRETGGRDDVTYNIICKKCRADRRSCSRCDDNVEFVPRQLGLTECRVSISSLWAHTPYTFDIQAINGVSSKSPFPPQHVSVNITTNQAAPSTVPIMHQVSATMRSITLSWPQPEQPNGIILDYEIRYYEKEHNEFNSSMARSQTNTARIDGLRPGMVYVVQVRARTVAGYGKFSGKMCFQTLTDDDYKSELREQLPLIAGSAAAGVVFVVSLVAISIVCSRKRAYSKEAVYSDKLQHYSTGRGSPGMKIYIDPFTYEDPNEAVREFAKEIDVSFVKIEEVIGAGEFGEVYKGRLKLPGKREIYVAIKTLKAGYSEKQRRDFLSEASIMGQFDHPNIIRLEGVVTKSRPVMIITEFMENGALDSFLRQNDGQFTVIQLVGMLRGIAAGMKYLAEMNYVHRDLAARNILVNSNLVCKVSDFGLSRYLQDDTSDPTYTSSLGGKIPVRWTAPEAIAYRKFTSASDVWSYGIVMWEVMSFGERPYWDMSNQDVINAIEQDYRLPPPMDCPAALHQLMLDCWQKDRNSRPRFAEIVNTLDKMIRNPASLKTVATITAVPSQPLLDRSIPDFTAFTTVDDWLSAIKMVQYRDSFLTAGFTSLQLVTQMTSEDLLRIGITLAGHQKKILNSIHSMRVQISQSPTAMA
Chain of Fes (P07332 whole entry, looked up): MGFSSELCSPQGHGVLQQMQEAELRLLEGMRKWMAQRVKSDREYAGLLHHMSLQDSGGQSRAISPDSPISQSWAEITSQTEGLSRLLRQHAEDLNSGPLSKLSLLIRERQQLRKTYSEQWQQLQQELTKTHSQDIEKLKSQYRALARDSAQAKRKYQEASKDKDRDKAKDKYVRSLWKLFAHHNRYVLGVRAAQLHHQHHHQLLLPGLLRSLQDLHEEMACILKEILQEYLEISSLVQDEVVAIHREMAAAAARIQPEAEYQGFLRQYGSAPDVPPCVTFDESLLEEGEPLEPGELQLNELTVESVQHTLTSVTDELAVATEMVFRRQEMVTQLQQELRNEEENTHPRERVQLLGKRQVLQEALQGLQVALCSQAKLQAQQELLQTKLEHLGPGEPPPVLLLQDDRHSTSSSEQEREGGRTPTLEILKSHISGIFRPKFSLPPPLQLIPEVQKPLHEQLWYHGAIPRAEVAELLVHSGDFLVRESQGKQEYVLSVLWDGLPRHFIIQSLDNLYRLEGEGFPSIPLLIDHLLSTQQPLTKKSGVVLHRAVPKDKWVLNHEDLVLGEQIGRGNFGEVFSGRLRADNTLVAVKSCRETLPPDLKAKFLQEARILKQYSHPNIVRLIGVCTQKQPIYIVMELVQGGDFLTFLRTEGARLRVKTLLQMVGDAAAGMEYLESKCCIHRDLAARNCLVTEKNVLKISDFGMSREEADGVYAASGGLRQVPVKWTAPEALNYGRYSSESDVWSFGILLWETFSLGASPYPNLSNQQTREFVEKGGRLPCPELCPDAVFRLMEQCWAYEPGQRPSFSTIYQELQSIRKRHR
Chain of Fyn (P06241 whole entry, looked up): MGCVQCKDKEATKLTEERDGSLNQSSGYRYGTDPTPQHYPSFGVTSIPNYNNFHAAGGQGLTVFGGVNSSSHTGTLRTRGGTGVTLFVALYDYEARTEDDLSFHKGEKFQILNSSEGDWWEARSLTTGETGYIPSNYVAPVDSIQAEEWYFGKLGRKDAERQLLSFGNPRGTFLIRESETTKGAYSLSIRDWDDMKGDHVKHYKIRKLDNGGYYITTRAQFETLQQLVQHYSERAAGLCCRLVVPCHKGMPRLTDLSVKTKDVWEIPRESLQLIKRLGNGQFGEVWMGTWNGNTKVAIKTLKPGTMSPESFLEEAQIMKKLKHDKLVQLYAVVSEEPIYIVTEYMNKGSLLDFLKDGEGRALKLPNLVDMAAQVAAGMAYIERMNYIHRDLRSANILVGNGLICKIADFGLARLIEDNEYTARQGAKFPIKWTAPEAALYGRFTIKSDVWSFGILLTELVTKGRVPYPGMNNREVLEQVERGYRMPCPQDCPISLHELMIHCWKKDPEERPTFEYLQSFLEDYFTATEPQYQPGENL

Sequence | SH2 binding enrichment (c-Src SH2) | SH2 binding enrichment (SHP2-C SH2) | SH2 binding enrichment (Grb2 SH2) | phosphorylation enrichment (Jak2) | phosphorylation enrichment (Fyn) | phosphorylation enrichment (FGFR1) | phosphorylation enrichment (FGFR3) | phosphorylation enrichment (EPHB2) | phosphorylation enrichment (Fes) | phosphorylation enrichment (AncSZ) | phosphorylation enrichment (c-Src) | phosphorylation enrichment (c-Abl (mouse)) | phosphorylation enrichment (Fer (mouse)) | phosphorylation enrichment (Hck) | phosphorylation enrichment (MERTK) | phosphorylation enrichment (EPHB1)
KLFIEYPTGSG [IRF2BPL_Y423] | 0.505 | 1 | 0.82 | 0.653 | 0.444 | 0.412 | 0.486 | 0.565 | 0.775 | 0.636 | 0.402 | 0.521 | 0.301 | 0.431 | 0.374 | 0.478
DYSLKYATDIP [APC_Y1183] | 0.443 | 0.536 | 0.704 | 1.25 | 0.582 | 0.6 | 0.913 | 0.565 | 1.29 | 1.35 | 0.571 | 0.736 | 0.573 | 0.6 | 0.5 | 0.78
DPADRYLTEQY [CDKL5_Y286_C291Y] | 0.429 | 0.944 | 1 | 0.965 | 0.478 | 0.454 | 0.597 | 0.487 | 1.15 | 0.899 | 0.477 | 0.806 | 0.39 | 0.497 | 0.402 | 0.398
LSSNLYYRWLT [CNGA3_Y168_P163L] | 0.795 | 1.27 | 1.29 | 13.4 | 6.81 | 21.5 | 17.8 | 8.33 | 3.38 | 6.06 | 6.55 | 12.6 | 8.47 | 15.2 | 20.4 | 7.53
APNEFYDGDHD [HDAC3_Y414] | 0.57 | 0.632 | 0.727 | 1.32 | 0.535 | 0.624 | 1.18 | 0.605 | 1.29 | 1.3 | 0.574 | 1.04 | 0.59 | 0.769 | 0.602 | 0.613
YIRRDYEACKA [BBS4_Y48_K46R] | 0.514 | 0.917 | 0.48 | 0.75 | 0.572 | 0.633 | 0.578 | 0.685 | 0.807 | 0.765 | 0.706 | 0.64 | 0.426 | 0.509 | 0.435 | 0.897
LTQRTYMSENA [GPAA1_Y49] | 0.422 | 0.801 | 0.783 | 0.65 | 0.376 | 0.452 | 0.485 | 0.528 | 0.613 | 0.636 | 0.429 | 0.488 | 0.429 | 0.455 | 0.47 | 0.364
WRPFGYPCRRR [BCS1L_Y181_R183C] | 0.435 | 0.488 | 0.746 | 0.394 | 0.442 | 0.496 | 0.462 | 0.435 | 0.643 | 0.622 | 0.517 | 0.544 | 0.458 | 0.457 | 0.509 | 0.422
VDGSLYKTHPQ [HK1_Y417] | 0.465 | 0.596 | 0.765 | 0.409 | 0.44 | 0.338 | 0.419 | 0.389 | 0.556 | 0.472 | 0.385 | 0.425 | 0.421 | 0.365 | 0.378 | 0.436
FCRIMYDIFPF [INTS13_Y67_YF] | 0.8 | 0.862 | 0.93 | 1.57 | 1.31 | 0.531 | 0.743 | 2.61 | 1.74 | 1.71 | 3 | 1.38 | 1.18 | 3.11 | 4.83 | 2.66
IRKKFYRAILE [CHD7_Y1218_Q1214R_YF] | 0.433 | 0.458 | 0.619 | 0.797 | 0.57 | 0.426 | 0.444 | 0.58 | 0.62 | 0.569 | 0.658 | 0.568 | 0.42 | 0.455 | 0.618 | 0.386
GVRYIYTIDGS [DCX_Y105] | 0.67 | 17.4 | 0.943 | 0.937 | 1.76 | 0.487 | 0.743 | 0.552 | 1.31 | 1.09 | 1.86 | 0.687 | 0.415 | 0.783 | 0.405 | 0.6
SDPIIYTLENV [ADGRE1_Y534_I539V] | 0.554 | 0.682 | 0.88 | 0.945 | 7 | 0.577 | 0.663 | 0.576 | 1.38 | 1.1 | 4.92 | 0.723 | 5.1 | 1.61 | 1.09 | 0.5
TWSSSYRSDRL [CRYBB1_Y131] | 0.473 | 0.722 | 0.997 | 0.621 | 0.456 | 0.398 | 0.389 | 0.608 | 1.07 | 0.682 | 0.451 | 0.593 | 0.477 | 0.419 | 0.448 | 0.441
GLRYGYGGLGG [KRTAP20-2_Y15_V17G] | 0.568 | 0.557 | 0.826 | 0.44 | 0.349 | 0.339 | 0.412 | 0.31 | 0.564 | 0.507 | 0.398 | 0.431 | 0.334 | 0.329 | 0.349 | 0.349
SGDVQYRSSVR [FREM2_Y2158_T2153S] | 0.514 | 0.883 | 0.812 | 0.396 | 0.375 | 0.378 | 0.432 | 0.332 | 0.608 | 0.442 | 0.364 | 0.481 | 0.377 | 0.378 | 0.348 | 0.472
LEYNEYFRDLN [HPRT1_Y198_D194E] | 0.451 | 0.592 | 0.998 | 2.17 | 1.01 | 1.89 | 1.75 | 0.975 | 2.09 | 2.6 | 1.14 | 1.3 | 0.804 | 0.847 | 0.605 | 1.18
ENEGTYVCIAT [ADAMTSL3_Y1365] | 0.395 | 0.6 | 0.74 | 1.1 | 1.44 | 1.29 | 1.45 | 1.16 | 1.38 | 1.46 | 1.62 | 0.852 | 1.3 | 1.08 | 0.662 | 1.73
VKANTYEKYWP [GATM_Y100] | 1.02 | 0.888 | 1.12 | 0.728 | 1.32 | 0.454 | 0.471 | 0.825 | 0.71 | 0.785 | 2.02 | 0.492 | 0.506 | 1.01 | 0.976 | 0.59
NFFDTYIKTCL [IQGAP2_Y1445_YF] | 0.528 | 0.752 | 0.85 | 1.34 | 0.456 | 0.508 | 0.815 | 0.731 | 1.34 | 1.3 | 0.54 | 0.843 | 0.555 | 0.587 | 0.496 | 0.736

The next lines start with results.

SH2 binding enrichment (c-Src SH2) | SH2 binding enrichment (SHP2-C SH2) | SH2 binding enrichment (Grb2 SH2) | Sequence | phosphorylation enrichment (Jak2) | phosphorylation enrichment (Fyn) | phosphorylation enrichment (FGFR1) | phosphorylation enrichment (FGFR3) | phosphorylation enrichment (EPHB2) | phosphorylation enrichment (Fes) | phosphorylation enrichment (AncSZ) | phosphorylation enrichment (c-Src) | phosphorylation enrichment (c-Abl (mouse)) | phosphorylation enrichment (Fer (mouse)) | phosphorylation enrichment (Hck) | phosphorylation enrichment (MERTK) | phosphorylation enrichment (EPHB1)
0.566 | 0.591 | 1.24 | FQKNVYSEELR [LMNA_Y211_I210V] | 0.672 | 0.613 | 0.418 | 0.449 | 0.48 | 0.727 | 0.674 | 0.68 | 0.535 | 0.417 | 0.486 | 0.518 | 0.456
3.44 | 3.84 | 0.711 | HFGNNYTDVLQ [MACC1_Y803_R804T_YF] | 0.578 | 0.517 | 0.544 | 0.733 | 0.471 | 0.967 | 0.874 | 0.66 | 0.761 | 0.573 | 0.426 | 0.638 | 1.61
0.435 | 0.348 | 0.786 | RSRSSYTHSLN [MYCT1_Y116_G119S] | 0.948 | 0.63 | 0.575 | 0.514 | 0.537 | 0.755 | 0.832 | 0.938 | 0.97 | 0.381 | 0.495 | 0.762 | 0.504
0.447 | 0.629 | 0.74 | EILLSDLRTGY [TGM1_Y365_Y365D] | 0.744 | 0.416 | 0.511 | 0.616 | 0.455 | 0.845 | 0.673 | 0.401 | 0.421 | 0.362 | 0.553 | 0.422 | 0.367
2.9 | 0.704 | 0.875 | KVITDYYVDMK [MPP4_Y566] | 1.4 | 0.557 | 3.97 | 2.64 | 0.865 | 1.07 | 1.26 | 0.597 | 0.758 | 0.496 | 0.576 | 0.577 | 1.71
4.4 | 1.82 | 1.17 | CTTFHYNYMCN [TP53_Y234_I232F] | 0.842 | 0.547 | 0.696 | 0.713 | 0.629 | 1.05 | 1.03 | 0.507 | 0.955 | 0.659 | 0.514 | 0.475 | 0.809
2.24 | 0.85 | 2 | LCRYGYANTSE [SI_Y1233] | 1.11 | 0.688 | 0.656 | 1.36 | 0.661 | 1.41 | 1.31 | 0.789 | 0.932 | 0.746 | 0.772 | 1.15 | 0.78
0.481 | 0.559 | 0.774 | SNSAAYSGSVA [PDLIM5_Y382_T381A] | 0.636 | 0.404 | 0.33 | 0.421 | 0.393 | 0.566 | 0.512 | 0.409 | 0.697 | 0.343 | 0.354 | 0.381 | 0.398
0.512 | 0.639 | 1.06 | WFKKFYDANFD [MAPRE2_Y158_YF] | 0.85 | 0.37 | 0.378 | 0.6 | 0.374 | 1.28 | 0.998 | 0.368 | 0.537 | 0.373 | 0.421 | 0.399 | 0.501
11 | 2.04 | 1.01 | CTTSHYNYMCN [TP53_Y234_I232S] | 0.537 | 0.49 | 0.569 | 0.649 | 0.534 | 0.755 | 0.896 | 0.441 | 0.515 | 0.55 | 0.563 | 0.549 | 0.741
0.581 | 0.693 | 0.804 | RDMNAYIRPSP [MMAA_Y207] | 1.57 | 1.01 | 0.804 | 1.02 | 1.02 | 1.24 | 1.03 | 0.971 | 1.32 | 1.19 | 0.8 | 1.02 | 0.444
0.572 | 0.769 | 0.979 | SGDDGYAKDAQ [TENM4_Y1530_K1535Q] | 0.832 | 0.508 | 0.45 | 0.615 | 0.394 | 0.866 | 0.818 | 0.379 | 0.575 | 0.557 | 0.493 | 0.418 | 0.446
0.884 | 0.984 | 0.846 | RLSVDCGKKSK [TUBA4A_Y161_Y161C] | 1.1 | 0.551 | 0.444 | 0.788 | 0.619 | 0.825 | 0.684 | 0.471 | 0.828 | 0.571 | 0.462 | 0.432 | 1.03
